Experimental data: US12686712B2, “Antibody, related use, pharmaceutical composition including method for diagnosing fungal infections, fungal infection diagnosis kit and method for treating fungal infections” (priority 2020, dated 2026)
Values joined by “and” are separate entries in the source; they are usually repeats but may differ in a detail not shown here. Equal values may be shown once.

B1: AF1/CC5: murine IgM monoclonal antibody against chitooligomers (chitotriose); VH SEQ ID NO: 19, VL SEQ ID NO: 20 (antibody, listed as Mus musculus, V domains shown)
VH: STGQVKLEESGGGLVQPGGSMKLSCAASGFTFSDAWMDWVRQSPEKGLEWVAEIRSKANNHATYYAESVKGRFTISRDDSKSSVYLQMNSLRAEDTGIYYCTRHRYDGFDYWGQGTTLTFP
VL: DYFLASQGEVTMTCSASSSISYMHWYQQKPGTSPKRWIYDTSKLASGVPARFSGSGSGTSYSLTISSMEAEDAATYYCHQRSSYPCTFGAGTKLELKRADAAPTVSLETKTS

Tests used:
C. neoformans strain H99 = experiment: Survival trial, lethal i.p. challenge; format: in vivo, Balb/C line mice; settings: AmB standard dose 2.5 mg/kg alone; data not provided
Procedure: Balb/C line mice (n=7) were lethally challenged via i.p. with 10^5 cells in PBS of C. neoformans (H99) and treated 2 hours later with 100 μl of AmB (2.5 mg/kg and 0.25 mg/kg), 100 μl of AcM (85 μg/ml) and 100 μl of AcM and AmB combined solution (0.25 mg/kg). Control animals were challenged only by C. neoformans (H99) or only with 100 μl of a solution of PBS, AmB (2.5 mg/kg) or AcM (85 μg/ml) without fungus (adapted from Liedke et al.). Survival rate was achieved and analysis was extended up to 90 days after infection, presenting statistical value with p<0.005.
Mice were lethally challenged with inoculant i.p. of 1×10^5 cells of yeast C. neoformans strain H99. After 2 hours, they were treated with PBS (negative control), 85 μg/animal of AcM (HC6/DD11) in isolate form, 0.25 or 2.5 mg/kg of AmB in isolate form, and in synergic form, AcM keeping test concentrations. Treatments were repeated for another two times, with 10-day interval.

C. neoformans [1] = experiment: Minimum inhibiting concentration (MIC) assay, alone or in association with AmB or FLC; format: cell-based, Cryptococcus neoformans; settings: 48 hours at 37° C.
Procedure: C. neoformans cells were cultivated in RPMI 1640 buffered with MOPS in pH 7 at 10^5 cell/well density in 96-well plates in 200 μl final volume. Systems were supplemented with AcM at concentration (25 to 0.05 μg/ml), AmB (1 to 0.1 lμg/ml) or FLC (8 to 2 μg/ml), alone or in association. After 48 hours of incubation at 37° C. under agitation, cells were suspended by pipetting for spectrophotometer reading at 592 nm wavelength.
AcMs fungicide activity was tested through CIM test. […] It was assessed if AcMs association with AmB or FLC would trigger antifungal effects in sub-inhibiting concentrations, thus 1 μg/ml concentrations of AmB and 4 and 2 μg/ml to FLC in combination with AcMs different concentrations. To assess whether there was combining effect of AcMs with drug, it was used as drug action base in isolate form.

C. neoformans [2] = experiment: Melanization trial (L-DOPA); format: cell-based, Cryptococcus neoformans
Procedure: C. neoformans cultivation was performed as paragraph and cellular suspension (1×10^6 cells/ml) was cultivated for 72 hours in minimum media supplemented with 1 mM of L-DOPA in 96-well plate of U-shape bottom. Antibodies HC6/DD11 and AF1/CC5 were added to minimum media within 25 to 0.05 μg/ml concentration range. The plate was centrifuged and pigment development quantification was defined densitometrically upon image scanning by iBright FL1000 Invitrogen equipment.
AcM HC6/DD11 e AF1/CC5 established concentrations were 0.2 to 25 μg/ml. L-DOPA was used with substrate to melanization.
Pigmentation in C. neoformans was assessed through brown to black sedimentation observation in 96-well plate bottom. To document pigmentation or inhibition, plates were photographed over white surfaces (clear bottom), to enable differentiation between pigmented and non-pigmented populations. It shall be noted that every AcM dose presents fungal growth, however with negative pigmentation or partial inhibition.

C. neoformans H99 = experiment: Biofilm development, XTT reduction trial; format: cell-based, Cryptococcus neoformans; settings: AcM 25 μg/ml, 48 hours at 37° C., vs fungus without treatment, p<0.05
Procedure: (§1) C. neoformans (H99 and Cap67) and Candida albicans were cultivated in Sabouraud media for 24 hours at 30° C. Cellular suspensions were centrifuged for 5 minutes at 3000 g, washed 3 times in PBC and suspended in minimum media (20 mg/ml thiamin, 30 mm glucose, 26 mM glycine, 20 mM MgSO4, and 58.8 mM KH2PO4). Then, they were added to 96-well plates (100 μl/well—1×10^6 células/ml) and cultivated for 48 hours at 37° C. at presence of AcM (HC6/DD11 and AF1/CC5) and AcM anti-GXM 18B7 (only to H99) at 25 μg/ml concentration, keeping under agitation for 30 minutes, for AcM total homogenization with fungi. As control, drug AmB was used at 1 μg/ml concentration.
(§2) Two analysis systems were performed: in the first, cells were washed, so that non-adhering cells were removed and only cells bonded to biofilm under development remained; in the second system, cells were not washed and all cells adhered or not to substrate were quantified.
(§3) Viable cell metabolic activity in both trials was assessed by the method based on decrease of XTT (2-methoxy-4-nitro-5-sulfophenyl)-5-[(phenylamino) carbonyl]-2H-tetrazolium hydroxide) in spectrophotometer at 492 nm of wavelength.
(§4) AcMs were tested (25 μg/ml) against three fungus species (C. albicans, C. neoformans—H99—and acapsular mutant of C. neoformans—Cap67), with control by AcM anti-GXM 18B7 (25 μg/ml) only to H99. In the first assay (FIGS. 14A and B), cellular suspensions were washed to remove non-adhering cells to substrate. […] In second assay (FIGS. 14C and D), cellular suspensions were not washed, and again AcM inhibited biofilm development (p<0.05) compared to cell not treated with antibodies. In both assays, cell growth was observed.
AcMs were compared to AcM anti-GXM 18B7 concerning biofilm development inhibition.

C. albicans [3] = experiment: Biofilm development, XTT reduction trial; format: cell-based, Candida albicans; settings: AcM 25 μg/ml, 48 hours at 37° C., vs fungus without treatment, p<0.05
Procedure: as §1, §2, §3, §4

C. albicans [4] = experiment: Indirect ELISA against intact cells using poly-L-Lysine (PL); format: binding, Candida albicans; settings: 10^4 and 10^5 cells/ml
Procedure: (§5) For this test, C. neoformans (H99), Candida albicans, Giardia lamblia, human lung line cell A549 (ATCC), Escherichia coli and Staphylococcus aureus. Cells were washed in PBS three times and suspended at 10^7 cell/ml density in poly-L-Lysine (5 μg/ml in PBS) for adherence at night at 4° C. The next day, plates were blocked with PBS/BSA 5% and incubated for 1 hour at 37° C., then they are incubated for 1 hour at 37° C. with anti-chitooligomer AcM at 50 μg/ml concentration and diluted at 5 μg/ml. Then, washing with PBS/Tween 0.05% was performed for 3 times and anti-IgM murine peroxidase was added diluted 1:5000 and incubated for 2 hours at 37° C. Plates were washed again and TMB was added and incubated for 30 minutes at 37° C.
(§6) Reaction was stopped with HCl 1 N and reading with spectrophotometer at 450 nm. After this trial, seriated dilutions were performed at density of cells 10^7 until 10 cells/ml to fungi and 10^7 until 10^4 cells/ml to other cellular types and tested of AcM anti-chitooligomer at 25 μg/ml concentration, followed by the same procedures abovementioned. […]
(§7) In this trial, 10^7 cell/ml of C. albicans were used to perform an absorbance curve, in which it was observed that there was a 25 μg/ml concentration reliable signal of both AcM, as above such value the curve starts to enter in plateau, as provided in FIG. 9. […]

Candida albicans = experiment: Immunofluorescence of AcM anti-chitooligomer against intact cells; format: binding; settings: AcM 25 μg/mL, 1 h at 37° C.; anti-IgM Alexa 568; calcofluor
Procedure: Fungal cells (10^6 cells)) were fastened (cacodylate paraformolaldehyde buffer 4%; 30 min) and blocked later (PBS/BSA 1%; 1 hour). Then, they were incubated with AcM anti-chitooligomer(25 μg/mL; 1 h at 37° C.) After washing with PBS, cells were incubated with mouse anti-IgM antibody conjugated at Alexa 568 (SIGMA; 1:1000). After PBS washing, cells were incubated with 25 μM of white calcofluor (Invitrogen) and washed again. Cellular suspensions were assembled in glass blades and assessed under microscope Olympus AX70, coupled to camera system (QImaging Retiga 1300) and assessed in QCapture suite V2.46 software.
From reliable and ELISA and Dot Blot trials, biological activity validation tests. Thus, AcMs were used through immunofluorescence (IF), using the pathogen Candida albicans as template. AcMs were efficient at fungal cellular wall labeling, showing the same profile whenever standard marker is used (lectin), data not provided.

[5] = tested on: acapsular mutant of C. neoformans Cap67; experiment: Biofilm development, XTT reduction trial; format: cell-based, Cryptococcus neoformans; settings: AcM 25 μg/ml, 48 hours at 37° C., vs fungus without treatment, p<0.05
Procedure: as §1, §2, §3, §4

C. neoformans (H99) = experiment: Indirect ELISA against intact cells using poly-L-Lysine (PL); format: binding, Cryptococcus neoformans; settings: 10^4 and 10^5 cells/ml
Procedure: as §5, §6, §7

Molecule | death of infected animals (C. neoformans strain H99) | concentration with fungicide effect (control drug alone) (C. neoformans [1]) | melanization in lower concentrations (C. neoformans [2]; concentrations lower than 1.6 μg/ml, p>0.05) | AcM concentration with partial inhibition of melanization/pigmentation (C. neoformans [2]; series 25 to 0.2 μg/ml, 72 hours, 1 mM L-DOPA, p<0.05) | biofilm development (XTT reduction) (C. neoformans H99; non-washed cells) | biofilm development (XTT reduction) (C. neoformans H99; washed cells) | biofilm development (XTT reduction) (C. albicans [3]; non-washed cells) | biofilm development (XTT reduction) (C. albicans [3]; washed cells) | ELISA signal in cell saturation curve (C. albicans [4]) | fungal cellular wall labeling by immunofluorescence (Candida albicans) | biofilm development (XTT reduction) ([5]; non-washed cells) | biofilm development (XTT reduction) ([5]; washed cells) | ELISA signal in cell saturation curve (C. neoformans (H99))
C[C@@H]1[C@H](O)[C@@H](C)/C=C/C=C/C=C/C=C/C=C/C=C/C=C/[C@H](O[C@@H]2O[C@H](C)[C@@H](O)[C@H](N)[C@@H]2O)C[C@@H]2O[C@](O)(C[C@@H](O)C[C@@H](O)[C@H](O)CC[C@@H](O)C[C@@H](O)CC(=O)O[C@H]1C)C[C@H](O)[C@H]2C(=O)O [AmB, amphotericin polyene B, reference compound] | did not die | 1 µg/mL |  |  |  |  |  |  |  |  |  |  | 
OC(Cn1cncn1)(Cn1cncn1)c1ccc(F)cc1F [FLC, Fluconazole] |  | 8 µg/mL |  |  |  |  |  |  |  |  |  |  | 
B1 |  |  | not significant inhibition | 3.2 µg/mL and 1.6 µg/mL | reduced biofilm development significantly | reduced biofilm development significantly | reduced biofilm development significantly | reduced biofilm development significantly | a plateau to both cells was achieved | characteristic polar label | reduced biofilm development significantly | reduced biofilm development significantly | a plateau to both cells was achieved
